Reference: PMC4985284, “Monochromatic multicomponent fluorescence sedimentation velocity for the study of high-affinity protein interactions” (eLife, 2016)
Values joined by “and” are separate entries in the source; they are usually repeats but may differ in a detail not shown here. Equal entries are not always repeated. Where two headings read alike, the source gives them in different places.

B1: Dylight488-labeled GluA2-ATD (amino-terminal domain of the AMPA receptor GluA2) (domain or fragment, UniProt P19491 22-404, looked up)
chain: VSSNSIQIGGLFPRGADQEYSAFRVGMVQFSTSEFRLTPHIDNLEVANSFAVTNAFCSQFSRGVYAIFGFYDKKSVNTITSFCGTLHVSFITPSFPTDGTHPFVIQMRPDLKGALLSLIEYYQWDKFAYLYDSDRGLSTLQAVLDSAAEKKWQVTAINVGNINNDKKDETYRSLFQDLELKKERRVILDCERDKVNDIVDQVITIGKHVKGYHYIIANLGFTDGDLLKIQFGGANVSGFQIVDYDDSLVSKFIERWSTLEEKEYPGAHTATIKYTSALTYDAVQVMTEAFRNLRKQRIEISRRGNAGDCLANPAVPWGQGVEIERALKQVQVEGLSGNIKFDQNGKRINYTINIMELKTNGPRKIGYWSEVDKMVVTLTELPS
modifications: Dylight488 (N-hydroxysuccinimide ester-activated dye); native complex glycosylation
notes: signal peptide in the construct; secreted; Cut with thrombin after IMAC; also called DL488-GluA2; source: HEK293T, transient transfection, secreted, purified (HiTrap NTA, thrombin, HiTrap Q); labelled with Dylight488 and separated from free dye on Superdex 75; not shown: His8, C-terminal, cleaved
B2: fusion protein of GluA3-ATD and rsEGFP2 (rsEGFP2-GluA3) (domain or fragment, UniProt P19492 23-408, looked up)
chain: GFPNTISIGGLFMRNTVQEHSAFRFAVQLYNTNQNTTEKPFHLNYHVDHLDSSNSFSVTNAFCSQFSRGVYAIFGFYDQMSMNTLTSFCGALHTSFVTPSFPTDADVQFVIQMRPALKGAILSLLSYYKWEKFVYLYDTERGFSVLQAIMEAAVQNNWQVTARSVGNIKDVQEFRRIIEEMDRRQEKRYLIDCEVERINTILEQVVILGKHSRGYHYMLANLGFTDILLERVMHGGANITGFQIVNNENPMVQQFIQRWVRLDEREFPEAKNAPLKYTSALTHDAILVIAEAFRYLRRQRVDVSRRGSAGDCLANPAVPWSQGIDIERALKMVQVQGMTGNIQFDTYGRRTNYTIDVYEMKVSGSRKAGYWNEYERFVPFSDQQIS
modifications: native complex glycosylation
notes: GluA3 AMPA receptor amino-terminal domain, residues Gly23-Ser408; The fluorescent protein is the detection tag and is not written as a part; it is joined by SGSG (before) and SGS (after); The methods call the fluorescent protein rsEGFP, the results rsEGFP2; Cut with thrombin; also called rsEGFP-GluA3 ATD fusion construct; source: HEK293T, transient transfection, secreted, purified (HiTrap NTA, …)

Experiments:
[1] = target: GluA3 ATD (Rattus norvegicus) (UniProt P19492); details: cited from earlier work
[2] = target: GluA2 ATD (Rattus norvegicus) (UniProt P19491); details: cited from earlier work
[3] = target: GluA2 ATD (Rattus norvegicus) (UniProt P19491); details: cited from earlier work; remark: listed apart in the source
[4] = target: GluA3 ATD (Rattus norvegicus) (UniProt P19492); details: cited from earlier work; remark: listed apart in the source
[5] = target: B2; test: AUC; FRAP-like FDS-SV, equimolar mixtures of rsEGFP2-GluA3 and DL488-GluA2, 20 min stationary 488 nm exposure at 6.5 cm before scanning, 50,000 rpm, 20°C; component sw isotherm with competitive homo- and hetero-dimerization model; details: both partners purified
[6] = target: the molecule itself; test: AUC; fluorescence-detected sedimentation velocity (FDS-SV), dilution series of DL488-GluA2 from 0.2 nM to 200 nM, 50,000 rpm, 20°C, 488 nm excitation; c(s) and sw isotherm with monomer-dimer model; dimer to monomers; 0.1 mg/ml unlabeled BSA added
[7] = target: B2; test: AUC; MCMC FDS-SV, equimolar dilution series of DL488-GluA2 and rsEGFP2-GluA3 from 0.1-30 nM, 13 mW excitation beam, 50,000 rpm, 20°C; global fit of component sw isotherms with a linked homo- and hetero-dimerization model, K_(d,22) fixed at 27.1 nM; details: both partners purified
[8] = target: B1; test: as above; details: both partners purified

For GluA3 ATD (from UniProt P19492), the Kd [1] is listed as 5600 nM.

For GluA2 ATD (from UniProt P19491), the Kd [2] is given as 1.8 nM, the Kd [3] is given as 20.5 nM and the Kd [4] is given as 1.3 nM.

For B1, the Kd [5] was 0.68 nM, the Kd [6] was 24 nM and 27.1 nM and the “stoichiometry N” value [6] was 2. The Kd [7] was 0.32 nM.

For B2, the “stoichiometry N” value [8] was 1.
